The target of one assay is T1, recombinant TMEFF1 (Homo sapiens, UniProt Q8IYR6).
T1 construct: generated to secrete the ECD from CHO cells to assist with biophysical evaluations; His tag (C); made in house; host or cells: CHO (ExpiCHO)
T1 sequence (Q8IYR6 40-330 limits assumed): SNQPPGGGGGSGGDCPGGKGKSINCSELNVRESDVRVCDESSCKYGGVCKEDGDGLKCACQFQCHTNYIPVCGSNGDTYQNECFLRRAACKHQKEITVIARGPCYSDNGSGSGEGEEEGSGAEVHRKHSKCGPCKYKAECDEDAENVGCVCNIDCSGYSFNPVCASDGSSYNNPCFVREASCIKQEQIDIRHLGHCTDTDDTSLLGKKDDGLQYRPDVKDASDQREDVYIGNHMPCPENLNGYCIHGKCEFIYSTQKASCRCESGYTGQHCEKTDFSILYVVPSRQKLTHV
The assay is described as follows: Binding competition binning (Octet). The following applies: seven antibodies, 3 bins. Here is the method:
Binding competition among different antibodies was determined using a real-time, interferometry assay on an Octet Red™ instrument with Protein A-conjugated biosensors. To assess whether two antibodies competed for binding to a recombinant TMEFF1 protein, the assay was performed as follows. Protein A biosensors were first submerged into wells containing 10 ug/mL of individual monoclonal antibodies for 5 minutes. Following the capture step, the biosensors were dipped briefly (15 seconds) into buffer and then any unoccupied sites on the biosensor were saturated by submerging them for 5 minutes into wells containing 100 ug/mL of an irrelevant monoclonal antibody. The Octet biosensors were then dipped briefly (15 seconds) in buffer before immersion for 1 minute into wells containing recombinant TMEFF1. The biosensors were dipped briefly (15 seconds) in buffer before immersion for 1 minute into wells containing a second recombinant antibody.
For the control case where the second antibody was the same as the first, there was no increase in signal, because there was no additional binding to the recombinant target.
For the control case where buffer was used instead of the first antibody, no recombinant target bound the non-quenching antibody on the biosensor and no second antibody bound the biosensor.
Competition binning using Octet™ was done with seven antibodies and 3 separate bins were identified.
On the technique in general: In BLI a coated tip is dipped into the sample, and binding shifts an interference pattern.

The subject of assay [1] is hTMEFF1-ECD recombinant deletion mutants. The assay is described as follows: Binding domain determination with hTMEFF1-ECD deletion mutants (Octet). Also on record: species or system human; key: FS1—follistatin domain 1; FS2—follistatin domain 2. The settings on record: full length TMEFF1 ECD vs ΔFS1, ΔFS2, ΔFS1&FS2. The text has this: TMEFF1 recombinant proteins expressing 3 different deletion mutants, AFS1 (AFollistatin Domain 1), AFS2 (AFollistatin Domain 2) or AFS1&FS2 were used to identify binding domains among different antibodes using an Octet Red instrument with Anti-Penta-His (HIS 1K) biosensors. Expression of the 3 deletion mutants was confirmed by WB analysis. 100 ngs of purified TMEFF1 ECD was run along with unpurified supernatant of transfected CHO cells with the different deletion mutants. HIS 1K biosensors were loaded by submerging the biosensors into wells containing 10 ug/ml of full length TMEFF1 or one of 3 different deletion mutants (AFS1, AFS2 or AFS1&FS2) for 60 seconds. Following the loading step, the biosensors were then dipped for 30 seconds in PBS before immersion for 30 seconds in 200 ul of unpurified recombinant antibodies for 30 seconds. The biosensors were then dipped briefly (30 seconds) in PBS to observe any dissociation. Samples were determined to show binding or no binding by comparing to a control well that contained no recombinant antibody. Differential binding to the deletion mutants allowed for determination of binding sites on TMEFF1 recombinant protein. For cases where the antibody bound all 3 recombinant proteins, the binding is outside of the deleted domains. For the case where binding is observed only on full length TMEFF1 and AFS2, the antibody is binding in the ΔFS1 domain.
26 of the identified antibodies were checked for epitope domain binding by Octet™ using the hTMEFF1-ECD recombinant deletion mutants (see Table 7, below).

The test system of another assay is 293-hTMEFF1 cells. The assay is described as follows: Flow based antibody internalization assay. The assay is classed as cell-based, human. The settings on record: 293-hTMEFF1 fixed with PFA, antibody 1 ug/ml, 30-120 min. Here is the method:
For Flow based internalization assay, 293-hTMEFF1 cells were collected and either fixed with 4% paraformaldehyde (PFA) for 20 minutes at 37° C. or kept live on ice. Cells were then incubated on ice for 40 minutes with anti-TMEFF1 antibody at 1 ug/ml, washed 2× with ice cold PBS, resuspended in complete warm media and incubated at 37° C. for 30, 60 or 120 minutes. Live cells were then fixed at those time points, washed 2× with PBS and labeled with fluorescent conjugated secondary antibody for 30 minutes on ice.
Antibody mediated TMEFF1 internalization was evaluated by Flow cytometry with five human anti-TMEFF1 antibodies in 293-hTMEFF1 cells. Fixed cells were treated with the antibody as a control of antibody loss due to detachment rather than internalization which would result in reduce signal. Thus a constant signal over time in fixed cells and a loss of signal in live cells would indicate antibody internalization. […] In live cells, it was observed that most antibodies show about a 50% internalization by 30 min of treatment (FIG. 1B).

B1: 31B7: human anti-TMEFF1 IgG1 antibody; VH SEQ ID NO: 17, VL SEQ ID NO: 21 (antibody, V domains shown)
VH: QVQLVESGGGVVQPGRSLRLSCAASGFTFSSYGMHWVRQAPGKGLEWVAVIWYNGINKYYADSVKGRFTISRDASKNTLYLQMNSLRAEDTAVYYCAREGLLWFGGMDVWGQGTTVTVSS
VL: EIVLTQSPLSLPVTPGEPASISCRSSQSLLHSNGYNYLHWYLQKPGQSPQLLIYLGSNRASGVPDRFSGSRSGTDFTLKIIRVEAEDVGVYYCMQALQTPYTFGQGTKLEIK
For B1, in the assay with recombinant TMEFF1, the “Competition binning (epitope bin)” value was “bind a region different from FS1 or FS2 and compete with each other”. The “Binding region (epitope domain binding)” value in assay [1] is listed as “other”. For the same molecule, in the assay on 293-hTMEFF1 cells, the “Cell surface binding in fixed cells over the duration of the assay” value was “consistent cell surface binding in fix cells”.

B2: 36H6: human anti-TMEFF1 IgG1 antibody; VH SEQ ID NO: 43, VL SEQ ID NO: 47 (antibody, V domains shown)
VH: QVQLVESGGGVVQPGRSLRLSCAASGFTFSDYGMHWVRQAPGKGLEWVAVIWYEGGNKYYTDSVKGRFTISRDNSKNTLYLQMNSLRAEDTAVYYCARILLWFGESYGMDVWGQGTTVTVSS
VL: DIQMTQSPSSLSASVGDRVTITCRASQGISNYLAWYQQKPGKVPKLLIYAASTLQSGVPSRFSGSGSGTDFTLTISSLQPEDVATYYCQKYNNAPWTFGQGTKVEIK
Turning to B2, in the assay with recombinant TMEFF1, the “Competition binning (epitope bin)” value is “compete with each other and bind FS1”. The “Binding region (epitope domain binding)” value in assay [1] was “FS1”. Moreover, the “Cell surface binding in fixed cells over the duration of the assay” value in the assay with 293-hTMEFF1 cells was “consistent cell surface binding in fix cells”.

B3: 24F10: human anti-TMEFF1 IgG1 antibody; VH SEQ ID NO: 33, VL SEQ ID NO: 36 (antibody, V domains shown)
VH: QVQLVESGGGVVQPGRSLRLSCAASGFTFSSYGMHWVRQAPGKGLEWVAVIWYDGSDKYYTDSVKGRFTISRDNSKNTLYLQMNSLRAEDTAVYYCARESMVRGIVITFFDYWGQGTLVTVSS
VL: EIVMTQSPATLSVSPGERATLSCRASQSVSSNLAWYQQKPGQAPRLLIYGASTRATGIPARFSGSGSGTEFTLTISSLQSEDFAVYSCQHYNNWPPTFGGGTKVEIK
B3: the “Competition binning (epitope bin)” value in the assay with recombinant TMEFF1 is “compete with each other and bind FS1”. Further, the “Binding region (epitope domain binding)” value in assay [1] is recorded as “FS1”. Besides, in the assay on 293-hTMEFF1 cells, the “Cell surface binding in fixed cells over the duration of the assay” value is listed as “consistent cell surface binding in fix cells”.

The values are drawn from patent publication US11312769B2, “Anti-TMEFF1 antibodies and antibody drug conjugates” (Bluefin BioMedicine, Inc., priority 2017, dated 2022).
